According to the RNAGym collection of RNA variant scans (doi:10.1073/pnas.2313332121):
This sample holds only a part of the variants without activity.

B1: TPR 5TU (parent)
chain: GGAUCUUCUCGAUCUAACAAAAAAGACAAAUCUGCCACAAAGCUUGAGAGCAUCUUCGGAUGCAGAGGCGGCAGCCUUCGGUGGCGCGAUAGCGCCAACGUUCUCAACUAUGACACGCAAAACGCGUGCUCCGUUGAAUGGAGUUUAUCAUG

Variants of: B1
Assay: polymerase ribozyme fitness, log enrichment relative to wild type (log ratio); higher = more active; in vitro selection for triplet polymerase activity
How it was run: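 Frozen incubation at −7 °C formed the core of a single, triplicate in vitro selection round applied to PCR-built, transcribed mutant libraries of each subunit of a heterodimeric triplet polymerase ribozyme. Extended constructs were gel-excised, captured with streptavidin beads and amplified by RT-PCR, and input and output libraries were Illumina-sequenced with a filter of ≥10 input reads and ≥1 read per output. Fitness is the logarithm of genotype enrichment relative to wild-type enrichment, with inverse-variance-weighted replicate averaging, and the logarithm is base 2.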

| Variant | polymerase ribozyme fitness (log ratio) |
| --- | --- |
| U6C A60U G86A | -3.49 |
| U6A A12C A16U A19U C75G G84C A97G A98U U102A G124U | ≤ -4.2 |
| C5U U13C C95U U146G | -1.13 |
| U6A C35A U104C | -3.88 |
| U6A C87A A137C | ≤ -4.2 |
| U6A G11A U45A U53G C76U U90G C118U | ≤ -4.2 |
| C5U G25C G42U U61A A107U G133U A142C U148A | ≤ -4.2 |
| U6C A24C G86U U104G C125U | ≤ -4.2 |
| U6A G86A C87G | ≤ -4.2 |
| U6A A26C A122C | -2.04 |
| U6A A12U | 0.206 |
| C5U C8U G58A A73G C114U A120G | -3.02 |
| U6C A47G G59C G92U C99A C118G | -3.32 |
| C5U A41U G68A G94A C99G U102G A115G C125G | ≤ -4.2 |
| U6C A19C A26G C85G C108A | ≤ -4.2 |
| U6A U146G A150G G152A | -1.38 |
| U6C A49C U55A U104C U146C | ≤ -4.2 |
| U6C A47C G81C C87G C96U | ≤ -4.2 |
| U6A U9G C35G A60G C69G G88C C96A | ≤ -4.2 |
| C5U U45A G50U G86C C96U | ≤ -4.2 |
| U6A A23U A30U G46A A47C | ≤ -4.2 |

| Variant | polymerase ribozyme fitness (log ratio) |
| --- | --- |
| C5U C96U | 0.36 |
| C5U A49C G81U C93G | ≤ -4.2 |
| U6C A47C C85A | -3.96 |
| C5U A29U G62A G67C A142U | ≤ -4.2 |
| C5U G50A C54A C76U G84U C95U C114U | ≤ -4.2 |
| U6A U55A | -1.4 |
| U6A U55G | -0.118 |
| U6A U7C G83A C125A | -3.64 |
| C5U G84A | 0.439 |
| U6C A20C A28C A37U G42U G71A C85U C99G A106G C131G | ≤ -4.2 |
| U6A C57G A64G C76U C87A | ≤ -4.2 |
| U6A C57G C105U | 0.464 |
| U6A C87U | -0.846 |
| U6A C14U A91C A150U | ≤ -4.2 |
| U6A C85U G140C | -3.99 |
| C5U U45G A119U | -0.808 |
| C5U A28U A40U C57U G83C A89G | ≤ -4.2 |
| C5U G84A A142U | -0.976 |
| C5U U33A G88U C96U U127C | ≤ -4.2 |
| U6A C35A C63U C69U C76A G83C | ≤ -4.2 |
| U6A C8A A12G C43U A64C G86C C87A | ≤ -4.2 |

| Variant | polymerase ribozyme fitness (log ratio) |
| --- | --- |
| U6A C51U A52U U56A G83U G84A C114U | ≤ -4.2 |
| C5U U7A G88U U148C A150C | ≤ -4.2 |
| U6A C27A C85G | ≤ -4.2 |
| C5U C85U | -0.24 |
| C5U C27G C95U C96U G141C | ≤ -4.2 |
| U6C A60G G117U | -1.75 |
| U6A C79A G86U A89C C103G | ≤ -4.2 |
| U6A C14A C32U G74A A138C | ≤ -4.2 |
| U6C A24U A40C U56A A73U C76G C129U | ≤ -4.2 |
| U6A C38G G42C G86U C93U U127A | ≤ -4.2 |
| U6A A22U G59U A73U U109G | -3.52 |
| U6A A12C G58U A91C A98U C103G C131U | ≤ -4.2 |
| U6C A21U U101A U104A U148A | ≤ -4.2 |
| C5U A28U C51G A52C G67A G94C | ≤ -4.2 |
| U6A U56A U82G C103U | -1.06 |
| U6A G80C G94A | ≤ -4.2 |
| U6A U56A | -0.431 |
| U6A G88C C116U | ≤ -4.2 |
| U6A | 0.197 |
| U6C | -0.0891 |
| C5U U13A A23G C36U G46A A97U C103U | ≤ -4.2 |

| Variant | polymerase ribozyme fitness (log ratio) |
| --- | --- |
| C5U C51A C54G G59C G84A C116G | -3.05 |
| U6A C8G A60C G62A C85A C103A | ≤ -4.2 |
| C5U A64C G84A A122G G124U U144G U151A | ≤ -4.2 |
| C5U C51A G58A G81C | -1.81 |
| U6A A30C G58C A60U C76G A106U C149G | ≤ -4.2 |
| C5U U13A C57G G141U | -1.34 |
| U6C A16G A24U C96A C118U | -3.92 |
| U6A A29G G74A C103G A107G A122U | ≤ -4.2 |
| U6A A24U G81U C85G G140U | ≤ -4.2 |
| U6A A22C G50A U61G C79U C85A G143U A147C | ≤ -4.2 |
| U6C A21U U55A G58A G86A | -3.18 |
| U6A C27U A41C U55A G62C G71C C85A G143U | ≤ -4.2 |
| U6A U90G C95U U109G A137C | ≤ -4.2 |
| C5U C85G U104C | -3.03 |
| U6A C54U G58C C85A U134C | -1.4 |
| C5U G46U C85G | -2.05 |
| U6C A41G U56G G59A U61G C76A A91C C95G G124A | ≤ -4.2 |
| U6A A12U U53A C114U | -3.59 |
| U6A C69G G84U U145C | -1.67 |
| U6A G25U | -1.78 |
| C5U A52C C76U C93A C116U C123G | -3.61 |
